# System: K4 kissing-loop RNA reporter
# Assay: apparent KD of K4 kissing-loop reporter; higher = weaker reporter binding
# Details: Eterna round: R107
# Protocol: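 RNA-MaP round R107: designed RNA switches with theophylline, tryptophan, arginine or FMN aptamers are transcribed on-chip within common flanks. They are titrated with a labelled K4 kissing-loop RNA reporter in RNA-MaP buffer (100 mM Tris pH 7.5, 80 mM KCl, 4 mM MgCl2), without ligand or with the indicated ligand. Median apparent KD per design.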
# [1] = input ligand: theophylline 20 uM
# [2] = input ligand: tryptophan 2.4 mM
# 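Note: bound reporter read as fluorescence of individual clusters on recovered sequencing chips by microscopy, with normalized cluster intensities fitted with a binding model.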
Sequence,apparent KD of K4 kissing-loop reporter (input ligand: FMN 200 uM),apparent KD of K4 kissing-loop reporter (input ligand: arginine 13.2 mM),apparent KD of K4 kissing-loop reporter (input ligand: none),apparent KD of K4 kissing-loop reporter [1],apparent KD of K4 kissing-loop reporter [2]
CUGUUUUAGUCGGCCGCCACUGCAAGUGAUGUUUGGAGUAUUAUGCCGUUUCUGUCCAUUGAACCCAGGACCGGGACCGGAUCGU [theeternabot_exclusion_KL_Trp_B_8],212 nM,167 nM,206 nM,186 nM,189 nM
CUUAAGAUAUGAGUGAUGUUUAUGUCCGAAGGAGCGUGCGAAAGUACAGGUAGGUCGCGGAUGUGAGUGAUGUUUAUGUAAGCGA [KL-XArg-A14 #analogue],121 nM,37.1 nM,120 nM,75 nM,103 nM
CUUCGAUUAACAGAUACCAGUCACUUUGGAGCCACACACAAGUGAGUGAUGUUCACUUGUGACCCUUGGCAGCUGUUAGUCGAAG [Theo B Ex t1],92.8 nM,75.4 nM,83.4 nM,87.6 nM,88.1 nM
CUUCUUCUUCCAAUCUCGGCCAACACGGGACGAGGACCGGUACGGCCGCCACUCGUGCAGUGAUGUUGCACGAUGGUGACGGAGA [Engebiisso],98.5 nM,81.1 nM,84.6 nM,74.7 nM,113 nM
CUUGAUGGAAACAUCGAGUAGAUUACUGAUACCAGUAUCGAUAGAUACCCUUGGCAGCAGAAUCAGUGAUCACGAGUGAUGUUCG [Ex Theophylline A K4 8],525 nM,441 nM,529 nM,451 nM,484 nM
CUUGGUGGCUACAUCAGGAAUUGCGGCGGAAAGGAUAUUCAUUGGCGAAGAAGGUUCCAAGUGACGAGUGAUGUUCUUCGUAAGG [theeternabot_sameState_KL_FMN_A_13],422 nM,434 nM,802 nM,579 nM,779 nM
CUUGUACAAGUGAUGUUUGUUAUAUCCGAAGGAGCGUCGUAAUAGACAGGUAGGUCGCGGAGUAAGAUAGUUUUUUUAAUAUCAU [JR_Nu_SSArginiA_Sub029],435 nM,338 nM,556 nM,462 nM,288 nM
GAAAGAAAGUAUGAUACCAGACACCCGAGUGAUGUUCGGAGCAGUGUGAUGUUCUUUUAAGUCCCUUGGCAGCAUAAAAGAAAAG [whbob_SS_Theo_B_sa84],122 nM,142 nM,126 nM,101 nM,91.7 nM
GAACGGAGUGAUGUUCCGUUGACGAUCCUACGAGGACCGGUACGGCCGCCACUCGUAUUGCAGUGAUGUUGCAACCAGCCGUACU [Exclusion Tryptophan A GF 10],104 nM,112 nM,102 nM,106 nM,87.9 nM
GAACGGCGGGCGGCCGCCACUGGUAUACGAGUGAUGUUCGGAUAUACGUGAUGUAAGGUAAUUAUCAGGACCGGGUCAGAGCCGG [#16 K4 Tryptophan B Same State],394 nM,183 nM,303 nM,341 nM,167 nM
GAAGGUCAAAGACCUUCGUGCACACCUGAUACCAGUCGCGAAAGCGACCCUUGGCAGCAGGGCAGUGAUGUUGCCAGUGCACAAA [Omei KL Theo A SS A v5],194 nM,176 nM,191 nM,164 nM,159 nM
GAAGUACAGGCGGCCGCCACUAGUGAUGUUAGUGAUAAAAGAUAUAGUAAAUAUCGGCAUGUAGAUAGGACCGGGCCUGAUGGAG [ggbgmullin],311 nM,220 nM,256 nM,236 nM,226 nM
GAAUGAAAUAUCUGGCCCUAUCAGAAUUGGAAGGAUAUGACGGUCAUCAGAAGGUCCAACUCGUAGUGAUGUUGCGGGUUUUAAA [theeternabot_exclusion_KL_FMN_A_21],91.2 nM,46.3 nM,41.4 nM,42.8 nM,36.2 nM
GACAUCUAUCGCCGAUAGUGUUUAUCUUGGGAGGAUAUGUCAGCGGACAGAAGGCCCAGUGAUGUUGGGUAGAUGACCGUUGCUU [Edbiza],242 nM,114 nM,135 nM,127 nM,120 nM
GACGGGCAGUGAUGUUGCCGGUCUCUUGGACGAGGACCGGUACGGCCGCCACUCGAUCUGAUGCGAGAAUUGUAUCUUUUAAUAA [Tegesosoat],250 nM,177 nM,242 nM,346 nM,347 nM
GACUACCGGGCGGCCGCCACUGGGCUCCGAGUGAUGUUCGGAAAGACUCAUACACUGCUGUCAGACAGGACCGGGCCAAGGCGCA [theeternabot_sameState_KL_Trp_B_5],145 nM,170 nM,172 nM,201 nM,151 nM

Sequence,apparent KD of K4 kissing-loop reporter (input ligand: FMN 200 uM),apparent KD of K4 kissing-loop reporter (input ligand: arginine 13.2 mM),apparent KD of K4 kissing-loop reporter (input ligand: none),apparent KD of K4 kissing-loop reporter [1],apparent KD of K4 kissing-loop reporter [2]
GAGAACUCUUACGAUACCAGCCGGAGUGAUGUUCCGCGCUUGGACGUAGUAACCCGCACCGGCCCUUGGCAGCGUGGAUCCUAUG [Bibiinor],91.1 nM,81.2 nM,86.1 nM,86.8 nM,80.5 nM
GAGAAUAACGGAAGGAGCGAGUAAUGGAGUGAUGUUCCAAUCAAUAAAACACAAUAAAAUACUCAGGUAGGUCGCCGUAGUAGUU [Exclusion Argiie B GF 12],244 nM,339 nM,323 nM,330 nM,215 nM
GAGAUAGCGACGGCCGCCACUAGUGAUGUUAGUGCGGGUAGAUAGAUACUUGAACAGAAAUGACGUAGGACCGGGUCAGAUAGAG [#02 K4 Tryptophan B Exclusion],162 nM,94.5 nM,125 nM,140 nM,149 nM
GAGCCAGAAGUUGCUGCGGGUUUCAGAGAUACCAGCCGUAUUGUAGGCCCUUGGCAGCUCGAGUGAUGUUCGAGCCGCUUCUAGC [Inma],128 nM,95.4 nM,120 nM,115 nM,114 nM
GAGGCCAAACGGAGUGAUGUUUCGUAUGAUACCAGCAGCGAAAGCUGCCCUUGGCAGCAUGCCACGGCCUCGGCAGGAAACUGCC,401 nM,322 nM,358 nM,371 nM,339 nM
GAGGUACAGGCGGCCGCCACUAGUGAUGUUAGUGAUAAAAGAUAUAGUAAAUAUCGGCAUGUAGAUAGGACCGGGCCUGAUGGAG [ptvcmullin],234 nM,214 nM,234 nM,234 nM,209 nM
GAGGUACAGGCGGCCGCCACUAGUGAUGUUAGUGAUAGAAGAUAUAGUAAAUAUCGGCAUUUAGAUAGGACCGGGCCUGGUGGUG [ffdfcmullin],296 nM,242 nM,271 nM,286 nM,275 nM
GAGUUUCGUAAAGGAUAUUCUAGCUAAAGCCAUUAGUGAUGUUGAUGUACGGACGGAAGCCUGGCAGAAGAAGGUUAACAGGAUU [theeternabot_sameState_KL_FMN_B_24],708 nM,326 nM,410 nM,420 nM,312 nM
GAUACGUCAGUGAUGUUGAUGUAUUACACAGAGGAUAUCGUAAUGACGAGAAGGCUGAGCCAUCUAGAGAUACGUAAGACGUAUC [FMN A SS t5],154 nM,196 nM,184 nM,188 nM,205 nM
GAUCUAUGUCCCGAUACCAGCUCAGAAGCUAGGGAGUGAUGUUCUCGGAGGUUAUCACUGAGCCCUUGGCAGCGGAACGUGACGA [theeternabot_sameState_KL_Theo_B_26],227 nM,182 nM,239 nM,230 nM,218 nM
GAUGAUCGCGCGGCCGCCACUGGUCAGUGAUGUUGACAUUAAGGCGCCGAGUAGUAACGGCGCCACAGGACCGGGCGCGAUGUAG [First Shot],135 nM,155 nM,156 nM,126 nM,176 nM
GAUGCAUAUUCCUGGAGGAAGAUGGUUAAGAAGGAUAUCAAAGCCGUGAGAAGGUCUAAACCUAAUAGUCGAGUGAUGUUCGACC [theeternabot_sameState_KL_FMN_A_35],231 nM,309 nM,356 nM,428 nM,278 nM
GAUGUCUAGAGAUCAUCUAGACACCUAGAUACCAGCAGAUAUAUCUGCCCUUGGCAGCUAGAACCAGUGAUGUUGGUAUAUGCUC [Theo A SS t3],259 nM,256 nM,307 nM,360 nM,229 nM
GAUUCAGUGAUGUUGGAAGGCGAGCGGGAUACCAGCCGAGACUCAGGCCCUUGGCAGCCCACAUAUCCCAGGUAGAUAGUCGCUC [Same State - Theophylline A (Freestyle 10)],343 nM,266 nM,325 nM,383 nM,265 nM
GAUUUAGAGGCGGCCGCCACUAGUGAUGUUAGUGAUGUUUGAUACUGAAUAUAUCGGCGUGUAGAUAGGACCGGGCCAGAUGGAG [zwqqmullin],221 nM,179 nM,218 nM,211 nM,203 nM
GCACUGAAGUGAUGUUUUUGUGCACGUUGAAAGGAUAUCUGCUUGUAGAGAAGGUUCUGUUUGUGCGGAGCGGGCGUUACCGGCA [theeternabot_exclusion_KL_FMN_A_32],307 nM,269 nM,310 nM,285 nM,308 nM

# Source: the supplement of paper PMC9170038
